Laboratory results as given in the RNAGym collection of RNA variant scans (doi:10.7554/elife.80360).

B1: HDV Ribozyme (parent)
chain: GGCCGGCAUGGUCCCAGCCUCCUCGCUGGCGCCGGCUGGGCAACAUUCCGAGGGGACCGUCCCCUCGGUAAUGGCGAAUGGGACCCA

Variants of: B1
Assay: self-cleavage, relative activity (ratio to wild type); higher = more cleavage; co-transcriptional

Variant	self-cleavage
C64G G73C	0.324
C57U C58U	1.3
U27C C32G	0.217
C44A U60A	0.867
U12A C13U	0.0978
C62G G76C	0.937
C32G G39U	0.0563
C21U C33U	0.147
C19A A43U	0.0222
U12C G74U	0.0692
G29A C41A	0.0405
C24A C62A	0.946
G5C C41A	0.0665
C33U C49G	0.855
C7A A42C	0.19
G2A C41A	0.168
A70U A78C	0.0941
C84A A87C	0.758
C61A C86U	1.01
C3U A56C	0.675
C48A C62A	0.878
C4U G59U	0.973
G68A G76U	1.14
G68A G76C	0.88

Variant	self-cleavage
U9A C13G	0.111
U23A A43G	0.516
U9C C14G	0.208
C4G C32A	0.0692
G31C C36A	0.0277
G11A C63G	0.514
C15A C19U	0.089
G1C U23G	0.227
C57U	0.993
C7G G29C	0.0615
C26U C33G	0.389
A51C G76U	1.11
G2U U46A	0.0187
A70G G80C	0.104
U37C G39U	0.564
C63A C86G	1.02
C14G G17U	0.323
G50U G80C	0.111
C21A A42U	0.208
C44U U69A	0.787
G6A G59C	0.587
G29U G52U	0.0875
G2C U46G	0.0959
U20A U46A	0.0594

Variant	self-cleavage
C19A C36U	0.0468
G38U G81C	0.0678
C13U C21U	0.0563
G6A U12A	0.253
C7G C62A	0
U60A U65A	0.831
G17U C62U	0.602
G34A G50A	0.16
C7U A42C	0.18
G6U G10C	0.364
C30A G35U	0.166
U20C G28U	0.119
A43C A78U	0.0415
G38A G74C	0.161
G34U G39U	0.115
G50A A77G	0.743
C30G C61A	0.0252
G5A C13A	0.0369
A43U G59C	0.502
C15U C63U	0.914
G67C U72A	0.682
G38C A83C	0.107
G53A U79G	0.554
C24G C64A	0.117

Variant	self-cleavage
C19A G73A	0.0519
C58G C63U	1.04
U9C U27G	0.914
U12C C86A	0.864
A16G G17C	0.214
C26U C84G	0.962
G11C C86U	0.38
G2A U72A	0.053
U9G G25U	0.383
G29U C85U	0.086
A83U C86G	0.361
G74C G80U	0.127
C22A G81C	0.128
U12G C86U	0.403
U23C G73C	0.269
G10C C24U	0.646
G81A C85U	0.163
U12G C41A	1.06
C32A U60C	0.213
C3U U23G	0.743
C26A G81A	0.712
U9A C26U	1.12
G53U G76A	1.09
G35A U60G	0.554

Variant	self-cleavage
G29A G50U	0.241
U37A G67C	0.128
U37G C64A	0.122
G10C C13U	0.119
C33G C62A	0.225
G25A C32A	0.0848
G73A G76C	0.516
A42U G81C	0.0426
G68U U72C	0.237
G1U C61A	0.326
A16G G53A	1.04
C4A C63U	0.344
G35C G68U	0.305
G17A G52U	0.728
G5U C41G	0.111
G31U G52C	0.35
G38A A77U	0.0845
C7G G73U	0.0831
G2C U47G	0.0923
C33G A43C	0.0723
C3G A78G	0.151
A45C A56C	0.712
G2A A43C	0.0665
U23C C86A	0.857

Variant	self-cleavage
G2U G73A	0.0484
G6C U27G	0.0791
A71G A87C	1.03
C41A G54A	1.01
C26A G73C	0.522
C3U G50U	0.728
C33G G80A	0.0631
C24A G34A	0.166
U23G	0.731
G29U G73U	0.095
G25A G59A	0.189
C4A A8U	0.0723
U46A C84G	0.68
U37C G55C	1.1
C24A C64A	0.803
G34C C57G	0.0978
U12G C36G	0
G34C G82C	0.117
C3U U37A	0.128
U9G C61A	1.33
G53C C62G	1.01
C15G U79C	0.342
G28U A78U	0.0723
U46C C58U	0.7

Variant	self-cleavage
C4A A78U	0.0437
C15A U27C	0.277
C21G U37C	0.0615
C64A A77G	0.703
G6A C32A	0.277
G6C C24A	0.138
C13A A45U	0.128
C14G A16C	0.0875
U9C C41A	1.19
G35C A56U	0.232
C30G G50C	0.157
G6A A8U	0.475
C32G C75A	0.154
C7U C62A	0.764
A8U A45U	0.587
A42U C44G	0.464
C3U G10A	0.513
A43U U79G	0.162
G73C G81C	0.0292
A45U G54A	0.939
C14A C61G	0.997
C36A G39C	0.128
C63U G73C	0.618
G68U C86G	0.945

Variant	self-cleavage
G1U G25C	0.17
U12G U69C	1.35
G6A G54U	0.819
U37G G52A	0.106
G11U U37G	0
C30A A56C	0.875
G52A C84U	0.691
C32A U69C	0.161
G34C U72C	0.19
G6C A43G	0
G34A G55U	0.192
G53C G76C	0.991
U9C G50A	0.877
G1U U27C	0.26
A45C C64G	0.649
G17C C57U	0.256
U65G G82A	0.162
C49G A71G	0.72
U27G A42C	0.185
G29C A51C	0.231
U20C A70U	0.0594
G38U A71G	0.166
G40U A83U	0.0936
G39A G50U	0.441

Variant	self-cleavage
C14A A78G	0.0519
C3A U12G	0.241
C24G C84A	0.123
G10C U12C	0.0978
C15G A70C	0.776
G50C A78C	0.188
G80C C85G	0.205
C33G U47G	0.0723
C4U C13G	0.0449
A8U C19G	0.106
C58U U69C	0.95
A43G A87C	0.688
A8U C14A	0.192
C33U G74C	0.0339
C19U G82A	0.0511
C21A C84G	0.0314
G52C A56G	0.851
C14A U72C	0.378
C3G C84A	0.564
U60A G80A	0.3
C57A G76U	1.16
G28U G80A	0.0681
A8C G73A	0.256
C30G C32U	0.113

Variant	self-cleavage
G1C G40C	0.0475
C32U G68C	0.803
C75G A77G	0.0755
C24G A42U	0
C62A A87C	0.946
G2U U65G	0.0782
A42U G80A	0.16
C18A G68U	0.147
A16U G50A	0.933
G10U A78U	0.0554
U20A U60A	0.142
C13U A78G	0.178
C4G U65C	0.18
C26A U79G	0.875
C18G C30A	0.0739
A56G G80U	0.165
C7U U12C	0.237
U12A C75G	0.277
G29C G35C	0.0405
C36U A42C	0.155
G39U A43G	0.0811
G17A G53U	0.718
C36G C48G	0
C19G C33G	0

Variant	self-cleavage
G11U A43U	0.0893
U27G U37A	0.119
C62A U65C	0.969
G5U G38U	0.453
C14G C58A	0.639
G1U A51C	0.231
C19U G29A	0.102
G35U A83C	0.181
G38A C86G	0.107
G34U G81C	0.144
C15U A87C	1.03
C21U C22U	0.0702
C3G C36G	0.0343
G38U U46A	0.106
C57U U65A	0.917
U20G C26U	0.256
C14G A56U	0.969
U60A C63G	0.851
U9G G82A	0.739
A42G C48U	0.525
G31U C75U	0.0665
U20G G40C	0.0462
U23A G54A	1.01
G50U G54U	0.668

Variant	self-cleavage
G34U C41U	0.131
C19A C57U	0.155
A8U C66G	0.8
C19G C57G	0.0739
G53U A77G	0.8
G10U C63G	0.798
C4G A56G	0.249
G34C A56G	0.142
C26U U37C	1.34
C22U A45G	0.656
G10U A87C	0.801
G81A A87G	0.258
G52U A71G	0.901
C64U G74U	0.569
C3U C44G	0.354
U69C C84G	0.875
U72G A77C	0.128
A8G G54U	0.906
C13G U72G	0.0923
U37A G38C	0.0923
A51C A70G	0.849
U20G U23C	0
A56U G67A	1.17
G39U G73U	0.211

Variant	self-cleavage
C49G C86G	0.587
C4U U69C	0.755
C18U G73U	0.111
C15G U72A	0.0875
A45G A56C	1.3
G6U C63A	0.594
C14G C18U	0.115
A42C G53C	0.297
G34A C41G	0.141
A8C U27A	0.867
C62G C86G	1.14
G39C C58U	0.0923
G5C G54C	0.158
C13A C49U	0.119
C4G A77C	0
U20A A42G	0
U46G A56U	0.917
G28A G59A	0.0573
U47A U69G	1.13
U46C G50U	0.779
G40A U69A	0.892
G25A G82C	0.089
U37G G74U	0.213
C21G G55A	0.0941

Variant	self-cleavage
C21U U23C	0.175
U12A U27A	0.791
A71G G81U	0.291
C3G G29A	0.106
C44G G59A	0.636
C3G A16G	0.408
U37C A43G	0.332
C58U G74C	0.227
G25C C36A	0.128
C18U G68U	0.635
A78C U79A	0.0978
C19U C49G	0.154
U12G G68C	0.914
A8G C26G	1.36
G25A G29A	0.0567
G5U A77G	0.227
C33U G80U	0.179
C13U A43U	0.151
A45G G52A	0.875
U20A G55A	0.0959
G34C G52A	0.17
G10U U65A	0.665
